The target of one experiment is T1, SUDV VLP (Sudan virus (SUDV), UniProt Q66814 33-676).
T1 sequence: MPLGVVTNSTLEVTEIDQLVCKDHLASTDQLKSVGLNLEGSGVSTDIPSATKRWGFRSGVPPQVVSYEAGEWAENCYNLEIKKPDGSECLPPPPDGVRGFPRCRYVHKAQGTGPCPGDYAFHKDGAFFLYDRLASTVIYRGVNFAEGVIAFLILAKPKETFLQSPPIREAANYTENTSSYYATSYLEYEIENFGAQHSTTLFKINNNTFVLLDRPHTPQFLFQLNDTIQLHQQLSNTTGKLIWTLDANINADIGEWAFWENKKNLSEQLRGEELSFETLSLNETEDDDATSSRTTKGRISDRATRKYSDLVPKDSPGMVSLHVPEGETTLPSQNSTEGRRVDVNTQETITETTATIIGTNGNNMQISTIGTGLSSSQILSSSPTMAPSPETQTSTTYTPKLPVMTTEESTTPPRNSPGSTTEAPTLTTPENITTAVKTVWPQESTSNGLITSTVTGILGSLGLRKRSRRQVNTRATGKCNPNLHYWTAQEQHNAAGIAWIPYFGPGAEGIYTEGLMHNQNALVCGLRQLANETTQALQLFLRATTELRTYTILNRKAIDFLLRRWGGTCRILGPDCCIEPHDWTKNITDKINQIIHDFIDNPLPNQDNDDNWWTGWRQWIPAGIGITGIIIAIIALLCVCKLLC
The experiment is described as follows: ELISA.

The next experiment addresses T2, EBOV VLP (Ebola virus (EBOV), UniProt Q05320 33-676).
T2 sequence: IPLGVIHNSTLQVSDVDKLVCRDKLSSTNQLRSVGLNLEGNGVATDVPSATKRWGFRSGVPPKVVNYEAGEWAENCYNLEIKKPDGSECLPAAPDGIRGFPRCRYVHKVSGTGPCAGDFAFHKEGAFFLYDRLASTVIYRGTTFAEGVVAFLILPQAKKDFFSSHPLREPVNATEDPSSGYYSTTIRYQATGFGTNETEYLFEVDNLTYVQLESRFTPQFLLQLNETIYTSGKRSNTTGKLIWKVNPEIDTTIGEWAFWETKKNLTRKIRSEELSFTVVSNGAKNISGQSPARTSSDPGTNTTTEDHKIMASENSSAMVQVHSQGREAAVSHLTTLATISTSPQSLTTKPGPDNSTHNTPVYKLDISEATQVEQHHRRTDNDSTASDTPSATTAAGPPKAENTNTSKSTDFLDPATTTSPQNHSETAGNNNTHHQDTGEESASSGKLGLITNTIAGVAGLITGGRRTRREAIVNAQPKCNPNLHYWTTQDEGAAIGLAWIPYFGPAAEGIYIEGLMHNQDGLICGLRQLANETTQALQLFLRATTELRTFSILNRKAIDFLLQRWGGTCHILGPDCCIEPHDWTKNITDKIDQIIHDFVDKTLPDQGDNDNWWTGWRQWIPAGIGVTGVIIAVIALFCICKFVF
Description: ELISA.

Where a chain is given by its changes, count along the chain named.

From patent US20170334973A1 (INTEGRATED BIOTHERAPEUTICS, published 2017) come the findings set out here.

B1: FVM29 (antibody, V domains shown)
VH: EVQLVQSGAEVKRPGESLKISCQTSGNSFTNNWISWVRQMPGKGLEWMGAIDPSDSETRYSPSFQGQVTISADKSINTAYLQWSSLKASDTATYYCVKGSETWGQGVLVTVSS
VL: QPVLTQPASLSASPGASASLTCTFSGGINVAGYNILWYQQKAGSPPRYLLRYKSDSTKDQGSGVPSRFSGSKDASANTGILRISGLQSEDEADYYCAIGHSSGWIFGGGTRLTVL
Turning to B1, the response with SUDV VLP was half-maximal at 24.1 nM (EC50).

B2: FVM07 (antibody, V domains shown)
VH: EVQLVQSGAEVKRPGESLTISCKTSGYSFTDSWIGWVRQMPGKGLEWMGSIYPGDSDTKYNPSFQGHVTISADKSISTTYLQWSSLKASDTATYYCVAREAYWGQGVLVTVSS
VL: B1 VL with N34H, L36F, A42P, T57D, D59G, W104V, I105L
Consider B2, for which the values for the EC50 in the experiment with SUDV VLP and with EBOV VLP were 18.2 nM and 1.71 nM, respectively.

B3: FVM10 (antibody, V domains shown)
VH: QVQLVQSGAEVKRPGESLKISCQTSGYSFTDSWVAWVRQMPGKGLEWLGSIYPGDSETKYNPSFQGHVTISADKSISTAYLQWSSLKASDTATYYCAKGSETWGQGLRVTVSS
VL: B1 VL with P2A, V3G, A42P, T57D
With B3, the 50% effective concentration (EC50) with SUDV VLP was determined as 0.687 nM; with EBOV VLP, 0.653 nM.

B4: FVM08 (antibody, V domains shown)
VH: EVQLVQSGAEVKRPGESLTISCKTSGYSFTDSWVAWVRQMPGKGLEWMGSIYPGDSDTRYNPSFEGQVTISADKSISTTYLQWSSLRASDTATYYCVKGADDWGQGVLVTVSS
VL: B1 VL
As to B4, the results for the concentration giving a half-maximal response (EC50) in the experiment with SUDV VLP and with EBOV VLP were 0.135 nM and 0.193 nM, respectively.

B5: FVM39 (antibody, V domains shown)
VH: EVQLVQSGAEVKRPGESLRISCKTSGYSFTDSWISWVRQMPGKGLEWLGSIYPGDSETKYNPSFQGHVTISADKSVTTTYLKWSSLKASDTATYYCVKGSETWGQGVLVTVSS
VL: B1 VL
For B5, the EC50 with SUDV VLP was determined as 0.047 nM; with EBOV VLP, 0.08 nM.

B6: FVM12 (antibody, V domains shown)
VH: B5 VH with R19T, G26E, D31G, L48M, E57D, K59R, N61S, H67Q
VL: B1 VL with P14L, A42P, Y48F, T57D, K58N, D59V, R67H, A76T, I105V
Regarding B6, the EC50 turned out to be 0.673 nM with SUDV VLP and 0.622 nM with EBOV VLP.

B7: FVM38 (antibody, V domains shown)
VH: B5 VH with E1Q, R19T, S35G, L48M, G49A, G54D
VL: B1 VL
For B7, the results for the EC50 with SUDV VLP and in the experiment with EBOV VLP were 0.147 nM and 0.253 nM, respectively.

B8: FVM06 (antibody, V domains shown)
VH: B1 VH with K19T, Q23K, N27Y, N32Y, K43E, E57D, I70M, N77T
VL: B1 VL
Take B8: the EC50 in the experiment with SUDV VLP was found to be 0.213 nM; with EBOV VLP, 0.215 nM.

B9: FVM37 (antibody, V domains shown)
VH: B5 VH with E1Q, R19K, S28R, D31S
VL: B1 VL with Q1S, P2S, V3E
Take B9: the values for the EC50 with SUDV VLP and in the experiment with EBOV VLP were 0.127 nM and 0.227 nM, respectively.

B10: FVM27 (antibody, V domains shown)
VH: B1 VH with Q23K, N27Y, T30A, N31S, N32S, E57A, N77S
VL: B1 VL with T113I
Regarding B10, the figures for the EC50 with SUDV VLP and in the experiment with EBOV VLP were 0.12 nM and 0.233 nM, respectively.

B11: FVM34 (antibody, V domains shown)
VH: B5 VH with Q6E, R19T, I34V, L48M
VL: B1 VL with N34Y, L36H, A42P, T57D, D59H, I105V
Turning to B11, the EC50 with SUDV VLP was determined as 0.227 nM; in the experiment with EBOV VLP, 0.193 nM.

B12: FVM31 (antibody, V domains shown)
VH: B5 VH with E1Q, R19T, I34V, S35A, E57D, T58A, K59R, K74T
VL: B1 VL with Q1K, V3M
As for B12, the figures for the EC50 with SUDV VLP and with EBOV VLP were 0.193 nM and 0.32 nM, respectively.

B13: FVM16 (antibody, V domains shown)
VH: B5 VH with R19K, K23R, D31S, S32T, S35N
VL: B1 VL with Q1K, V3M, I105V
As for B13, the concentration for a half-maximal effect (EC50) was 1.43 nM in the experiment with SUDV VLP and 0.655 nM with EBOV VLP.

B14: FVM22 (antibody, V domains shown)
VH: B3 VH with Q1E, K19T, Q23K, L107V, R108L
VL: B1 VL with Q1S, P2S, V3G
Take B14: the half-maximal effective concentration (EC50) with SUDV VLP was determined as 0.173 nM; with EBOV VLP, 0.253 nM.

B15: FVM15 (antibody, V domains shown)
VH: B5 VH with E1Q, S28T, S32Y, S35A, L48M, S85R
VL: B1 VL
Consider B15, for which the EC50 is 0.129 nM with SUDV VLP and 0.151 nM in the experiment with EBOV VLP.

B16: FVM33 (antibody, V domains shown)
VH: B5 VH with E1Q, R19K, G26R, D31S, S35G, E57D, K59R
VL: B1 VL
As for B16, the EC50 with SUDV VLP turned out to be 0.08 nM; with EBOV VLP, 0.173 nM.

B17: FVM40 (antibody, V domains shown)
VH: B5 VH with R19T, L48M
VL: B1 VL with V3M
B17: the EC50 with SUDV VLP was 0.113 nM; with EBOV VLP, 0.173 nM.

B18: FVM14 (antibody, V domains shown)
VH: B5 VH with R19K, K23Q, D31S, S32T, S35T, V76I, T77S, K82Q, S84N
VL: B1 VL with P2A, L4V
Turning to B18, the concentration for a half-maximal effect (EC50) in the experiment with SUDV VLP was 0.157 nM; in the experiment with EBOV VLP, 0.78 nM.

B19: FVM26 (antibody, V domains shown)
VH: B5 VH with E1Q, S28T, S32Y, S35A, L48M, S85R
VL: B1 VL
B19: the EC50 in the experiment with SUDV VLP worked out at 0.153 nM; with EBOV VLP, 0.26 nM.

B20: FVM35 (antibody, V domains shown)
VH: B5 VH with R19T, D31S, S32Y, S35T
VL: B1 VL
For B20, the EC50 in the experiment with SUDV VLP was determined as 0.14 nM; with EBOV VLP, 0.233 nM.

B21: FVM41 (antibody, V domains shown)
VH: B5 VH with R19K, S32T, L48M
VL: B1 VL with Q1E, P2T, L4V, W104V, I105L
Regarding B21, the EC50 is 0.32 nM with SUDV VLP and 0.36 nM with EBOV VLP.

B22: FVM11 (antibody, V domains shown)
VH: B5 VH with R19T, I34V, S35A
VL: B1 VL with Q1N, P2F, V3M
As for B22, the EC50 worked out at 0.189 nM with SUDV VLP and 0.219 nM in the experiment with EBOV VLP.

B23: FVM04 (antibody, V domains shown)
VH: EVQLVQSGGGLVQPGGSMRLSCEASGLSLSDYFMHWVRQAQGKGLEWIGLIQTKAFTYKTEYPAAVKGRFTISRDDSKNTLYLQMSSLKPEDTALYYCIAVTPDFYYWGQGVLVTVSS
VL: DVVMTQSPSFLSASVGDRVTITCRASQDITINLNWFQHKPGKAPKRLIYVASRLERGVPSRFSGSGSGTEFTLTISSLQPEDFATYYCQQYNNYPLTFGPGTKLDIKR
As to B23, the EC50 with SUDV VLP was found to be 0.193 nM; in the experiment with EBOV VLP it was 0.306 nM.

B24: FVM05 (antibody, V domains shown)
VH: QVQLQESGPGLVKPSETLSLTCAVSGFSISSGYGWSWIRQPPGKGLEWIGYIGGSSGSTSYNPSLKSRVTLSADTSKNQFSLKLSSVTAADTAVYYCARRYSSYRSWFDVWGPGVLVTVSS
VL: SSGLTQPRSVSVSPGQTARITCGGDNIGSKSVHWYQQKPPQAPVLVIYADSERPSGIPERFSGSNSGNTATLTISGVEAGDEADYYCQVWDSSSDHWVFGGGTRLTVL
In the experiment with EBOV VLP, B24 returned an EC50 of 18 nM.
